Data from patent US20100169988A1, “MEANS AND METHODS FOR ISOLATING AND DETERMINING NOVEL TARGETS FOR THE TREATMENT OF NEURODEGENERATIVE, NEUROLOGICAL OR NEUROPSYCHIATRIC DISORDERS AND COMPOSITIONS COMPRISING THE SAME” (priority 2006, published 2010).

Key:
APP-TAP-AICD (human) [1] = biological target: APP-TAP-AICD (human) (UniProt P05067); test: streptavidin purification of APP-TAP-AICD from brain homogenate; LTQ-FT semiquantitative method, transgenic mouse 75 vs control mouse 72
APP-TAP-AICD (human) [2] = biological target: APP-TAP-AICD (human) (UniProt P05067); test: streptavidin purification of APP-TAP-AICD from brain homogenate; iTRAQ 116/114, transgenic mouse 75 vs control mouse 72; MALDI-TOF/TOF

Substance | probability that this protein is enriched (APP-TAP-AICD (human) [1]) | iTRAQ ratio (APP-TAP-AICD (human) [2])
fructose-bisphosphate aldolase A homolog (Adult male testis cDNA, RIKEN clone 4933425L11 product) (enzyme) | 0.87 | –
Syntaxin-1B2 (from UniProt P61264 1-288) | – | 4.57
similar to heat shock protein 1, alpha isoform 1 | 1 | –
Lrrk1 protein (Fragment), Q3UHC2 1-2014 | 0.88 | –
Heat shock protein HSP 90-alpha (HSP 86) (Tumor specific transplantation 86 kDa antigen) (from UniProt P07901 2-733) | – | 4.22
